According to patent publication US7122363:

What was measured:
[1] = molecular target: 63 kDa bovine brain CaM-PDE (expression product of p12.3a cDNA) (bovine) (UniProt Q01061); experiment: cell-based or functional assay
[2] = molecular target: 59 kDa bovine lung CaM-PDE (expression product of p59KCAMPDE-2 cDNA) (bovine) (UniProt P14100); experiment: cell-based or functional assay
Chain of 59 kDa bovine lung CaM-PDE (expression product of p59KCAMPDE-2 cDNA) (bovine) (P14100 other isoform, or with tags, fused parts or gaps limits assumed): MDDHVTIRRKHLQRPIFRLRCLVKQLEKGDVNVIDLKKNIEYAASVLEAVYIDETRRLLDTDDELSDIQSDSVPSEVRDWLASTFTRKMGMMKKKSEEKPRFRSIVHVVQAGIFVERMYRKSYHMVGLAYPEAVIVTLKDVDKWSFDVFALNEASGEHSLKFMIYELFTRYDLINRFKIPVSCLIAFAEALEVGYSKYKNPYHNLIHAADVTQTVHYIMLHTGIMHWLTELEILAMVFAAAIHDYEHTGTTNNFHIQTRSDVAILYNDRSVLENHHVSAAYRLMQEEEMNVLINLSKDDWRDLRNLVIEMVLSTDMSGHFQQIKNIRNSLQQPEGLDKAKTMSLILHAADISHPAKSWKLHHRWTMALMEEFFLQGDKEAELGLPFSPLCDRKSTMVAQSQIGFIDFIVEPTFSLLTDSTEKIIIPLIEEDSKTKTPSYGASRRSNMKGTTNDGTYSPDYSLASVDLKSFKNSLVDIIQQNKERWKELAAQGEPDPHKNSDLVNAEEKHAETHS

Chain of 63 kDa bovine brain CaM-PDE (expression product of p12.3a cDNA) (bovine) (Q01061 whole entry): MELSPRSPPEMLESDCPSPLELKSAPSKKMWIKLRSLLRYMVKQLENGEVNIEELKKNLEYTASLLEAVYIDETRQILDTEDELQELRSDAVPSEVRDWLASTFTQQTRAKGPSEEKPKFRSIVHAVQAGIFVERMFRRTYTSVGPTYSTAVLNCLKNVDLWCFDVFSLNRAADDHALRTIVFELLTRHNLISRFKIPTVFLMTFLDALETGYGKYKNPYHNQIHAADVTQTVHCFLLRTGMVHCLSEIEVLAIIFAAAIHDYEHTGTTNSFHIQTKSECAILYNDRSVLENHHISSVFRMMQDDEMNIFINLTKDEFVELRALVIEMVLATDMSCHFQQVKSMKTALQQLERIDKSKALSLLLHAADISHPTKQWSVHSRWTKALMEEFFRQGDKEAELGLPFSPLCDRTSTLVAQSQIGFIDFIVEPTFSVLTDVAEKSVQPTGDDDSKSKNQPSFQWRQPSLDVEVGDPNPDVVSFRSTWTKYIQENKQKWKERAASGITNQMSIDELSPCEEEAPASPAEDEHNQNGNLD

With calmodulin as the substance, how does the CaM-stimulated cAMP phosphodiesterase activity (homogenates of transfected COS-7 cells) [1] read?
The CaM-stimulated cAMP phosphodiesterase activity (homogenates of transfected COS-7 cells) was 15 fold.

What about the CaM-stimulated cGMP phosphodiesterase activity (homogenates of transfected COS-7 cells) [1] of the same substance?
The CaM-stimulated cGMP phosphodiesterase activity (homogenates of transfected COS-7 cells) was 12 fold.

What about the cAMP hydrolytic activity (extracts of transfected COS-7 cells, 2 uM cAMP) [2] of the same substance?
The cAMP hydrolytic activity (extracts of transfected COS-7 cells, 2 uM cAMP) was 4 to 5 fold.
